Experimental data reported in patent publication EP1007666B1.

Key:
[1] = target: rat NTNRα, endogenous on embryonic rat spinal motoneurons (rat); assay: cell-based or functional assay
[2] = target: recombinant soluble rat GDNFRα (rat) (UniProt Q62997); assay: displacement of labelled rGDNF from soluble GDNFRα by 10 nM unlabeled NTN
[3] = target: recombinant soluble rat GDNFRα (rat) (UniProt Q62997); assay: binding experiments with biotinylated ligand, format not described

Sequence of recombinant soluble rat GDNFRα (rat) (Q62997 25-430 limits assumed): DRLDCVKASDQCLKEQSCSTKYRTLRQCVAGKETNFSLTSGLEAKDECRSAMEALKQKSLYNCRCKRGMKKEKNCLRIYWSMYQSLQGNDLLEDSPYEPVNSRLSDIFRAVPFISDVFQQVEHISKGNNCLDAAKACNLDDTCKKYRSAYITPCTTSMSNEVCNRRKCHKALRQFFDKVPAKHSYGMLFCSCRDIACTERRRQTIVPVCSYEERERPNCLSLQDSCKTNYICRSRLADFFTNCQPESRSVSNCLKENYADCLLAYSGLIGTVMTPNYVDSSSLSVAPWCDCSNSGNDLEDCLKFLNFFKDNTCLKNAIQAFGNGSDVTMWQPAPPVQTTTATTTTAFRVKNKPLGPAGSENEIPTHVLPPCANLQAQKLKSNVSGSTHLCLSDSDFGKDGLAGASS

Substance: Neurturin (NTN), species not stated at these places (ligand)
- survival of E14 rat spinal motoneurons at 72 hours [1]: 50%
- Kd [2]: 1 nM
- Kd [3]: > 1 mM
